According to IntAct's records for PubMed 15302918:

B1: Nuclear receptor subfamily 2 group C member 2 (Homo sapiens), P49116 (parent)
chain: MTSPSPRIQIISTDSAVASPQRIQIVTDQQTGQKIQIVTAVDASGSPKQQFILTSPDGAGTGKVILASPETSSAKQLIFTTSDNLVPGRIQIVTDSASVERLLGKTDVQRPQVVEYCVVCGDKASGRHYGAVSCEGCKGFFKRSVRKNLTYSCRSNQDCIINKHHRNRCQFCRLKKCLEMGMKMESVQSERKPFDVQREKPSNCAASTEKIYIRKDLRSPLIATPTFVADKDGARQTGLLDPGMLVNIQQPLIREDGTVLLATDSKAETSQGALGTLANVVTSLANLSESLNNGDTSEIQPEDQSASEITRAFDTLAKALNTTDSSSSPSLADGIDTSGGGSIHVISRDQSTPIIEVEGPLLSDTHVTFKLTMPSPMPEYLNVHYICESASRLLFLSMHWARSIPAFQALGQDCNTSLVRACWNELFTLGLAQCAQVMSLSTILAAIVNHLQNSIQEDKLSGDRIKQVMEHIWKLQEFCNSMAKLDIDGYEYAYLKAIVLFSPDHPGLTSTSQIEKFQEKAQMELQDYVQKTYSEDTYRLARILVRLPALRLMSSNITEELFFTGLIGNVSIDSIIPYILKMETAEYNGQITGASL
partner: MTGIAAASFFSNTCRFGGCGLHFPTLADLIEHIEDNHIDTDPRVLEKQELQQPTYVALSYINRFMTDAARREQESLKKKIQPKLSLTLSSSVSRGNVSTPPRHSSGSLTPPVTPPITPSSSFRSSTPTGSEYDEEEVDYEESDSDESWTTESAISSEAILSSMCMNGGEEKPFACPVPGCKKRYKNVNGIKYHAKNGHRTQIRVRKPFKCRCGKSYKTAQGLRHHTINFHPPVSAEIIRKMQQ
B2: Juxtaposed with another zinc finger protein 1 (Homo sapiens), Q86VZ6 (parent)
chain: B1 partner
partner: B1 chain

Variants of: B1
Settings: with jazf1_human JAZF1, Q86VZ6

| Variant | effect of a mutation on the interaction |
| --- | --- |
| I576N | decreasing interaction strength |

Variants of: B2
Settings: with nr2c2_human NR2C2, P49116

| Variant | effect of a mutation on the interaction |
| --- | --- |
| Y60D | disrupting interaction strength |
| A69P | with no effect |
| L76P | decreasing interaction strength |
| K47P | with no effect |
